Test results reported in US20150260731A1.

Tests used:
Aβ1-20 = assay: solution-based binding assay, free antibody by ELISA, GRAFIT fit
[1] = target: amyloid β-derived diffusible ligands (ADDLs), oligomers of Aβ1-42; assay: KINEXA, equilibrium in solution
Aβ1-40 monomer [2] = assay: KINEXA, equilibrium in solution
[3] = target: amyloid β-derived diffusible ligands (ADDLs), oligomers of Aβ1-42; assay: competitive ELISA (ratio of the two EC50)
Aβ1-40 monomer [4] = assay: ELISA on coated antigen; antibody at 0 timepoint
[5] = target: amyloid β-derived diffusible ligands (ADDLs), oligomers of Aβ1-42; assay: ELISA, IgG2
Aβ1-40 monomer [6] = assay: one-sided ELISA, plate coated with Aβ1-40 100 pmol/well (FIG. 5A)
[7] = target: amyloid β-derived diffusible ligands (ADDLs), oligomers of Aβ1-42; assay: one-sided ELISA, plate coated with Aβ oligomers 50 pmol/well (FIG. 5A)
[8] = target: amyloid β-derived diffusible ligands (ADDLs), oligomers of Aβ1-42; assay: sandwich ELISA on ERENNA, 19.3 on beads as capture, labelled 7305 as detection; ADDLs 1.67 pM in standards diluent
Aβ1-40 monomer [9] = assay: ELISA on coated antigen; antibody kept at 25° for 1 month
[10] = target: amyloid β-derived diffusible ligands (ADDLs), oligomers of Aβ1-42; assay: sandwich ELISA on ERENNA, 19.3 on beads as capture, labelled 7305 as detection; ADDLs 5.00 pM in standards diluent
[11] = target: amyloid β-derived diffusible ligands (ADDLs), oligomers of Aβ1-42; assay: sandwich ELISA on ERENNA, 19.3 on beads as capture, labelled 7305 as detection; ADDLs 0.19 pM in standards diluent
Aβ1-40 monomer [12] = assay: sandwich ELISA on ERENNA, 19.3 capture, 7305 detection
[13] = target: amyloid β-derived diffusible ligands (ADDLs), oligomers of Aβ1-42; assay: sandwich ELISA on ERENNA, 19.3 on beads as capture, labelled 7305 as detection; ADDLs 0.56 pM in standards diluent
Aβ1-40 monomer [14] = assay: ELISA on coated antigen; antibody kept at 4° for 1 month
[15] = target: amyloid β-derived diffusible ligands (ADDLs), oligomers of Aβ1-42; assay: BIACORE (SPR)
Aβ1-40 monomer [16] = assay: BIACORE (SPR)
Aβ1-40 monomer [17] = assay: ELISA on coated antigen; antibody kept at 40° for 1 month
Aβ1-40 monomer [18] = assay: sandwich ELISA on ERENNA, 19.3 capture, 82E1 detection

Aβ1-20, sequence (peptide, as listed by the source): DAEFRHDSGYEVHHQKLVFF

Substance | Kd (Aβ1-20) [nM] | Kd [1] [nM] | Kd (Aβ1-40 monomer [2]) [nM] | affinity for Aβ1-42 oligomers compared to Aβ1-40 monomers [3] | EC50 (Aβ1-40 monomer [4]) [nM] | EC50 [5] [nM] | EC50 (Aβ1-40 monomer [6]) [nM] | EC50 [7] [nM] | DE Mean (detected events mean) (detected events) [8] | EC50 (Aβ1-40 monomer [9]) [nM] | DE Mean (detected events mean) (detected events) [10] | DE Mean (detected events mean) (detected events) [11] | Aβ40 monomer Cross Reactivity (Aβ1-40 monomer [12]) [%] | DE Mean (detected events mean) (detected events) [13] | EC50 (Aβ1-40 monomer [14]) [nM] | Kd [15] [nM] | Kd (Aβ1-40 monomer [16]) [nM] | EC50 (Aβ1-40 monomer [17]) [nM] | Aβ40 monomer Cross Reactivity (Aβ1-40 monomer [18]) [%]
WO-2 (antibody) | 19.3 | – | – | – | – | – | – | – | – | – | – | – | – | – | – | – | – | – | –
anti-ADDL antibody 19.3 | – | 2.7 | 16.7 | 630 | 10.1 | 0.8 | 4.3 | 1.6 | 1940 | 22.1 | 5580 | 324 | 0.02 | 691 | 16.3 | 4.8 | 150 | 88.8 | 0.04
